From patent US20260167699A1 (Chugai, published 2026)

Target: T1, FcγRIIIa extracellular domain, C-terminal His tag (human, UniProt P08637 17-208)
T1 construct: extracellular domain; also called 3a
Assay: SPR, binding activity relative to GpH7-A5/GpH7-B3/GpL16-k0 (=100)

T1 sequence (P08637 other isoform, or with tags, fused parts or gaps): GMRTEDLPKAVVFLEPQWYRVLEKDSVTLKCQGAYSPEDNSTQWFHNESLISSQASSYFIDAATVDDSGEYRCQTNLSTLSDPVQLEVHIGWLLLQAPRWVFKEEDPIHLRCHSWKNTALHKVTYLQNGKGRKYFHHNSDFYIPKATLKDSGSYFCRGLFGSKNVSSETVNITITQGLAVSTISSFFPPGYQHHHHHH

| He/Con 3a [%] | Binder |
| --- | --- |
| 122 | GpH7-A5/GpH7-B3 variant A330_08L/GpL16-k0 (antibody, human IgG1, kappa, He Ab; copies: 1 + 1 + 2) heavy 1: not shown heavy 2: not shown light: DIVMTQSPLSLPVTPGEPASISCQASESLVHSNRNTYLHWYLQKPGQSPQLLIYKVSNRFSGVPDRFSGSGSGTDFTLKISRVEAEDVGVYYCSQNTHVPPTFGQGTKVEIERTVAAPSVFIFPPSDEQLKSGTASVVCLLNNFYPREAKVQWKVDNALQSGNSQESVTEQDSKDSTYSLSSTLTLSKADYEKHKVYACEVTHQGLSSPVTKSFNRGEC |
| 67.3 | GpH7-A5/GpH7-B3 variant A330_18N/GpL16-k0 (antibody, human IgG1, kappa, He Ab; copies: 1 + 1 + 2) heavy 1: not shown heavy 2: not shown light: DIVMTQSPLSLPVTPGEPASISCQASESLVHSNRNTYLHWYLQKPGQSPQLLIYKVSNRFSGVPDRFSGSGSGTDFTLKISRVEAEDVGVYYCSQNTHVPPTFGQGTKVEIERTVAAPSVFIFPPSDEQLKSGTASVVCLLNNFYPREAKVQWKVDNALQSGNSQESVTEQDSKDSTYSLSSTLTLSKADYEKHKVYACEVTHQGLSSPVTKSFNRGEC |
| 102 | GpH7-A5/GpH7-B3 variant A330_20W/GpL16-k0 (antibody, human IgG1, kappa, He Ab; copies: 1 + 1 + 2) heavy 1: not shown heavy 2: not shown light: DIVMTQSPLSLPVTPGEPASISCQASESLVHSNRNTYLHWYLQKPGQSPQLLIYKVSNRFSGVPDRFSGSGSGTDFTLKISRVEAEDVGVYYCSQNTHVPPTFGQGTKVEIERTVAAPSVFIFPPSDEQLKSGTASVVCLLNNFYPREAKVQWKVDNALQSGNSQESVTEQDSKDSTYSLSSTLTLSKADYEKHKVYACEVTHQGLSSPVTKSFNRGEC |
| 85.8 | GpH7-A5/GpH7-B3 variant A330_14T/GpL16-k0 (antibody, human IgG1, kappa, He Ab; copies: 1 + 1 + 2) heavy 1: not shown heavy 2: not shown light: DIVMTQSPLSLPVTPGEPASISCQASESLVHSNRNTYLHWYLQKPGQSPQLLIYKVSNRFSGVPDRFSGSGSGTDFTLKISRVEAEDVGVYYCSQNTHVPPTFGQGTKVEIERTVAAPSVFIFPPSDEQLKSGTASVVCLLNNFYPREAKVQWKVDNALQSGNSQESVTEQDSKDSTYSLSSTLTLSKADYEKHKVYACEVTHQGLSSPVTKSFNRGEC |
| 51.4 | GpH7-A5/GpH7-B3 variant D270_13S/GpL16-k0 (antibody, human IgG1, kappa, He Ab; copies: 1 + 1 + 2) heavy 1: not shown heavy 2: not shown light: DIVMTQSPLSLPVTPGEPASISCQASESLVHSNRNTYLHWYLQKPGQSPQLLIYKVSNRFSGVPDRFSGSGSGTDFTLKISRVEAEDVGVYYCSQNTHVPPTFGQGTKVEIERTVAAPSVFIFPPSDEQLKSGTASVVCLLNNFYPREAKVQWKVDNALQSGNSQESVTEQDSKDSTYSLSSTLTLSKADYEKHKVYACEVTHQGLSSPVTKSFNRGEC |
| 50.5 | GpH7-A5/GpH7-B3 variant D270_02A/GpL16-k0 (antibody, human IgG1, kappa, He Ab; copies: 1 + 1 + 2) heavy 1: not shown heavy 2: not shown light: DIVMTQSPLSLPVTPGEPASISCQASESLVHSNRNTYLHWYLQKPGQSPQLLIYKVSNRFSGVPDRFSGSGSGTDFTLKISRVEAEDVGVYYCSQNTHVPPTFGQGTKVEIERTVAAPSVFIFPPSDEQLKSGTASVVCLLNNFYPREAKVQWKVDNALQSGNSQESVTEQDSKDSTYSLSSTLTLSKADYEKHKVYACEVTHQGLSSPVTKSFNRGEC |
| 122 | GpH7-A5/GpH7-B3 variant A330_15Y/GpL16-k0 (antibody, human IgG1, kappa, He Ab; copies: 1 + 1 + 2) heavy 1: not shown heavy 2: not shown light: DIVMTQSPLSLPVTPGEPASISCQASESLVHSNRNTYLHWYLQKPGQSPQLLIYKVSNRFSGVPDRFSGSGSGTDFTLKISRVEAEDVGVYYCSQNTHVPPTFGQGTKVEIERTVAAPSVFIFPPSDEQLKSGTASVVCLLNNFYPREAKVQWKVDNALQSGNSQESVTEQDSKDSTYSLSSTLTLSKADYEKHKVYACEVTHQGLSSPVTKSFNRGEC |
| 56.4 | GpH7-A5/GpH7-B3 variant A330_09D/GpL16-k0 (antibody, human IgG1, kappa, He Ab; copies: 1 + 1 + 2) heavy 1: not shown heavy 2: not shown light: DIVMTQSPLSLPVTPGEPASISCQASESLVHSNRNTYLHWYLQKPGQSPQLLIYKVSNRFSGVPDRFSGSGSGTDFTLKISRVEAEDVGVYYCSQNTHVPPTFGQGTKVEIERTVAAPSVFIFPPSDEQLKSGTASVVCLLNNFYPREAKVQWKVDNALQSGNSQESVTEQDSKDSTYSLSSTLTLSKADYEKHKVYACEVTHQGLSSPVTKSFNRGEC |
| 61.6 | GpH7-A5/GpH7-B3 variant E269_01G/GpL16-k0 (antibody, human IgG1, kappa, He Ab; copies: 1 + 1 + 2) heavy 1: not shown heavy 2: not shown light: DIVMTQSPLSLPVTPGEPASISCQASESLVHSNRNTYLHWYLQKPGQSPQLLIYKVSNRFSGVPDRFSGSGSGTDFTLKISRVEAEDVGVYYCSQNTHVPPTFGQGTKVEIERTVAAPSVFIFPPSDEQLKSGTASVVCLLNNFYPREAKVQWKVDNALQSGNSQESVTEQDSKDSTYSLSSTLTLSKADYEKHKVYACEVTHQGLSSPVTKSFNRGEC |
| 77.3 | GpH7-A5/GpH7-B3 variant A330_12R/GpL16-k0 (antibody, human IgG1, kappa, He Ab; copies: 1 + 1 + 2) heavy 1: not shown heavy 2: not shown light: DIVMTQSPLSLPVTPGEPASISCQASESLVHSNRNTYLHWYLQKPGQSPQLLIYKVSNRFSGVPDRFSGSGSGTDFTLKISRVEAEDVGVYYCSQNTHVPPTFGQGTKVEIERTVAAPSVFIFPPSDEQLKSGTASVVCLLNNFYPREAKVQWKVDNALQSGNSQESVTEQDSKDSTYSLSSTLTLSKADYEKHKVYACEVTHQGLSSPVTKSFNRGEC |
| 65.1 | GpH7-A5/GpH7-B3 variant D270_08L/GpL16-k0 (antibody, human IgG1, kappa, He Ab; copies: 1 + 1 + 2) heavy 1: not shown heavy 2: not shown light: DIVMTQSPLSLPVTPGEPASISCQASESLVHSNRNTYLHWYLQKPGQSPQLLIYKVSNRFSGVPDRFSGSGSGTDFTLKISRVEAEDVGVYYCSQNTHVPPTFGQGTKVEIERTVAAPSVFIFPPSDEQLKSGTASVVCLLNNFYPREAKVQWKVDNALQSGNSQESVTEQDSKDSTYSLSSTLTLSKADYEKHKVYACEVTHQGLSSPVTKSFNRGEC |
| 55.4 | GpH7-A5/GpH7-B3 variant D270_14T/GpL16-k0 (antibody, human IgG1, kappa, He Ab; copies: 1 + 1 + 2) heavy 1: not shown heavy 2: not shown light: DIVMTQSPLSLPVTPGEPASISCQASESLVHSNRNTYLHWYLQKPGQSPQLLIYKVSNRFSGVPDRFSGSGSGTDFTLKISRVEAEDVGVYYCSQNTHVPPTFGQGTKVEIERTVAAPSVFIFPPSDEQLKSGTASVVCLLNNFYPREAKVQWKVDNALQSGNSQESVTEQDSKDSTYSLSSTLTLSKADYEKHKVYACEVTHQGLSSPVTKSFNRGEC |
| 82.8 | GpH7-A5/GpH7-B3 variant A330_10E/GpL16-k0 (antibody, human IgG1, kappa, He Ab; copies: 1 + 1 + 2) heavy 1: not shown heavy 2: not shown light: DIVMTQSPLSLPVTPGEPASISCQASESLVHSNRNTYLHWYLQKPGQSPQLLIYKVSNRFSGVPDRFSGSGSGTDFTLKISRVEAEDVGVYYCSQNTHVPPTFGQGTKVEIERTVAAPSVFIFPPSDEQLKSGTASVVCLLNNFYPREAKVQWKVDNALQSGNSQESVTEQDSKDSTYSLSSTLTLSKADYEKHKVYACEVTHQGLSSPVTKSFNRGEC |
| 112 | GpH7-A5/GpH7-B3 variant D270_10E/GpL16-k0 (antibody, human IgG1, kappa, He Ab; copies: 1 + 1 + 2) heavy 1: not shown heavy 2: not shown light: DIVMTQSPLSLPVTPGEPASISCQASESLVHSNRNTYLHWYLQKPGQSPQLLIYKVSNRFSGVPDRFSGSGSGTDFTLKISRVEAEDVGVYYCSQNTHVPPTFGQGTKVEIERTVAAPSVFIFPPSDEQLKSGTASVVCLLNNFYPREAKVQWKVDNALQSGNSQESVTEQDSKDSTYSLSSTLTLSKADYEKHKVYACEVTHQGLSSPVTKSFNRGEC |
| 74.2 | GpH7-A5/GpH7-B3 variant D270_19Q/GpL16-k0 (antibody, human IgG1, kappa, He Ab; copies: 1 + 1 + 2) heavy 1: not shown heavy 2: not shown light: DIVMTQSPLSLPVTPGEPASISCQASESLVHSNRNTYLHWYLQKPGQSPQLLIYKVSNRFSGVPDRFSGSGSGTDFTLKISRVEAEDVGVYYCSQNTHVPPTFGQGTKVEIERTVAAPSVFIFPPSDEQLKSGTASVVCLLNNFYPREAKVQWKVDNALQSGNSQESVTEQDSKDSTYSLSSTLTLSKADYEKHKVYACEVTHQGLSSPVTKSFNRGEC |
| 102 | GpH7-A5/GpH7-B3 variant A330_16H/GpL16-k0 (antibody, human IgG1, kappa, He Ab; copies: 1 + 1 + 2) heavy 1: not shown heavy 2: not shown light: DIVMTQSPLSLPVTPGEPASISCQASESLVHSNRNTYLHWYLQKPGQSPQLLIYKVSNRFSGVPDRFSGSGSGTDFTLKISRVEAEDVGVYYCSQNTHVPPTFGQGTKVEIERTVAAPSVFIFPPSDEQLKSGTASVVCLLNNFYPREAKVQWKVDNALQSGNSQESVTEQDSKDSTYSLSSTLTLSKADYEKHKVYACEVTHQGLSSPVTKSFNRGEC |
| 63.1 | GpH7-A5/GpH7-B3 variant D270_07I/GpL16-k0 (antibody, human IgG1, kappa, He Ab; copies: 1 + 1 + 2) heavy 1: not shown heavy 2: not shown light: DIVMTQSPLSLPVTPGEPASISCQASESLVHSNRNTYLHWYLQKPGQSPQLLIYKVSNRFSGVPDRFSGSGSGTDFTLKISRVEAEDVGVYYCSQNTHVPPTFGQGTKVEIERTVAAPSVFIFPPSDEQLKSGTASVVCLLNNFYPREAKVQWKVDNALQSGNSQESVTEQDSKDSTYSLSSTLTLSKADYEKHKVYACEVTHQGLSSPVTKSFNRGEC |
| 86.3 | GpH7-A5/GpH7-B3 variant A330_19Q/GpL16-k0 (antibody, human IgG1, kappa, He Ab; copies: 1 + 1 + 2) heavy 1: not shown heavy 2: not shown light: DIVMTQSPLSLPVTPGEPASISCQASESLVHSNRNTYLHWYLQKPGQSPQLLIYKVSNRFSGVPDRFSGSGSGTDFTLKISRVEAEDVGVYYCSQNTHVPPTFGQGTKVEIERTVAAPSVFIFPPSDEQLKSGTASVVCLLNNFYPREAKVQWKVDNALQSGNSQESVTEQDSKDSTYSLSSTLTLSKADYEKHKVYACEVTHQGLSSPVTKSFNRGEC |
| 91.8 | GpH7-A5/GpH7-B3 variant A330_11K/GpL16-k0 (antibody, human IgG1, kappa, He Ab; copies: 1 + 1 + 2) heavy 1: not shown heavy 2: not shown light: DIVMTQSPLSLPVTPGEPASISCQASESLVHSNRNTYLHWYLQKPGQSPQLLIYKVSNRFSGVPDRFSGSGSGTDFTLKISRVEAEDVGVYYCSQNTHVPPTFGQGTKVEIERTVAAPSVFIFPPSDEQLKSGTASVVCLLNNFYPREAKVQWKVDNALQSGNSQESVTEQDSKDSTYSLSSTLTLSKADYEKHKVYACEVTHQGLSSPVTKSFNRGEC |
| 51.2 | GpH7-A5/GpH7-B3 variant D270_18N/GpL16-k0 (antibody, human IgG1, kappa, He Ab; copies: 1 + 1 + 2) heavy 1: not shown heavy 2: not shown light: DIVMTQSPLSLPVTPGEPASISCQASESLVHSNRNTYLHWYLQKPGQSPQLLIYKVSNRFSGVPDRFSGSGSGTDFTLKISRVEAEDVGVYYCSQNTHVPPTFGQGTKVEIERTVAAPSVFIFPPSDEQLKSGTASVVCLLNNFYPREAKVQWKVDNALQSGNSQESVTEQDSKDSTYSLSSTLTLSKADYEKHKVYACEVTHQGLSSPVTKSFNRGEC |
| 54.6 | GpH7-A5/GpH7-B3 variant D270_03V/GpL16-k0 (antibody, human IgG1, kappa, He Ab; copies: 1 + 1 + 2) heavy 1: not shown heavy 2: not shown light: DIVMTQSPLSLPVTPGEPASISCQASESLVHSNRNTYLHWYLQKPGQSPQLLIYKVSNRFSGVPDRFSGSGSGTDFTLKISRVEAEDVGVYYCSQNTHVPPTFGQGTKVEIERTVAAPSVFIFPPSDEQLKSGTASVVCLLNNFYPREAKVQWKVDNALQSGNSQESVTEQDSKDSTYSLSSTLTLSKADYEKHKVYACEVTHQGLSSPVTKSFNRGEC |
| 60 | GpH7-A5/GpH7-B3 variant D270_06M/GpL16-k0 (antibody, human IgG1, kappa, He Ab; copies: 1 + 1 + 2) heavy 1: not shown heavy 2: not shown light: DIVMTQSPLSLPVTPGEPASISCQASESLVHSNRNTYLHWYLQKPGQSPQLLIYKVSNRFSGVPDRFSGSGSGTDFTLKISRVEAEDVGVYYCSQNTHVPPTFGQGTKVEIERTVAAPSVFIFPPSDEQLKSGTASVVCLLNNFYPREAKVQWKVDNALQSGNSQESVTEQDSKDSTYSLSSTLTLSKADYEKHKVYACEVTHQGLSSPVTKSFNRGEC |
